In paper PMC11826091:

Columns and labels:
[1] = tested on: T1, MtvA (Pseudomonas aeruginosa PAD8 (plasmid pPAD8)), ORF:f8ca6192; assay: EMSA; conditions: pH 8.0, 25 min at room temperature
T1 sequence: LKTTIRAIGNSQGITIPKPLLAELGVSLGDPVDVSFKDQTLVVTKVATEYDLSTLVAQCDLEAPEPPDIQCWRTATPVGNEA

[2] = tested on: MtvA;MtvT (Pseudomonas aeruginosa PAD8 (plasmid pPAD8);Pseudomonas aeruginosa PAD8 (plasmid pPAD8)), ORF:f8ca6192+ORF:03226125; assay: EMSA; conditions: pH 8.0, 25 min at room temperature

Row | Sequence | binding [1] | binding [2]
1 | TTACTCGAGTGATGGCGATCGCCGCCGACGATGCTTCGTTTGATCACAGCTGCGTGGTCAACTTCAAATCGGCCGCCTGAGGGCGGCCCTACCCATAGATCCTGATTCCTCAACAAGAAAAAGCGACGTGTCCATTCGTTGACACTAAAGGTATTTTTGCGTATTTTTCGACATTATCATCTAATGAAAGTCGTTGGGGTTTGTTCGGTGGATCCATA (double strand) [P-icmL] | binds | binds
2 | GCCGTCTCCGCGCGGGAGGAAAAGGCCACAGCGATGTGGCTTTTTTCTTAAAAGAAAAGTCTCTCAGTGACAAAAGCGATGCATAGCCCGGTGCTAGCATGCGCTGAGCTTTAGGAGGCGCCCCC (double strand) [P-exsC] | no binding | no binding
3 | GTACGATCATCTTCACTTCCTCCAAATAGGAAGCTGAAGAATTTATGCAAATTTCATAATTTTATAACTAGCAAATGAGATAGATTTCGGTGAACCCGGACCCTTGCTAGGCTCGAAGAAACGTCCGAAAAGATCAGAGCA (double strand) [P-lasI] | no binding | no binding
4 | TATGGATCCCGTATCTGCTCGGTTGGTTGATGGACAAAGCGCTTATCAAAAGGAAAACAACGCTTTGGCGCACGACTATACAGCAACGAAAGTCGAACGATAAGGCAATGATAGTCAGAAGTGACCCACCACTCAACACCAACCCACGCCCATATAGGTCTACGGTGACCTAAAACCTCGCTCGCCCTCCAAATAGGTCACCTGTGACCCTCGAGTAA (double strand) [P-dotD] | binds | binds
5 | TTACTCGAGAAGTTTGGAATAACCAGAGATATGCTCGTCAACAACGAATGTTTGAACATATTTATCGGAACTTATTACATTCAGCGTAGCGTGCTGGGGAGTGATGATTTTTGGAAGGGCGTTGGTAATTACCACTCTCGCACGCCCGACAAAAACTACCGGTACAAACATCGTGTGTGGAACAGTCTCAAAGAAGTCCGGGGGCAGCAGGATCCATA (double strand) [P-icmP] | binds | binds
6 | GCTGGGAAGGCTCGCGATGATGAGGGGACTGGCCACTGTAGCGGGCCCGGCGCAGATCATCTTGACGCACGGCAAGCTCCCGGCGGCTGGGTGTTGCCGTCGGTCCGGCGAGCGGAACTATTACAGCGTGTAAGCCAAGGCTTACAAACGGCGGTGGTTTTGGCTGCTTTCTCCCCCTCGCAGAGATGCGTAATCTTCAAACCGTCAGGACATTGCGCAGG (double strand) [P-rsmY] | binds | binds
7 | CGGAAAACCTTAGACCCACTGAAGACCCGGCGTTCGCCGGGTTTTTTGTGTCTGCTCTTGTAAGCATTAACTTACACGGCGTGTGAGCCTAAGTAGATAAATGCCCGGGAGGTTTGCCAAAAACGCTCGGTGAATTTAAGTAACTTATTGAAATTAAAGGAATATATTTTTCTAAAATGGCTGCCGAAGAAGCTTCGCTGGGTTTTCTGGCAGGTTGCGGGAGCACTGGGAATCGCTAATATCACTCCTG (double strand) [P-rsmZ] | binds | binds
